The supplement of paper PMC9112550, “Optimization of the antimicrobial peptide Bac7 by deep mutational scanning” (BMC Biology, 2022)

Tested on: Escherichia coli TOP10
Experiment: shrunken log2 fold change of peptide-encoding DNA abundance (4.5 h post-induction vs induction); higher = less antimicrobial activity (less host growth inhibition)
Conditions: time post-induction: 4.5 h; library: site-saturation at positions 5, 18, 19, 20
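Also: peptides expressed intracellularly from a pBAD plasmid library in pooled LB shake-flask culture, induced with 0.3% L-arabinose, DNA abundance read by NGS, three biological replicates, DESeq2 with apeglm shrinkage.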

RRIRARPPRLPRPRPRPYFWPRP
shrunken log2 fold change: -0.0609

RRIRKRPPRLPRPRPRPAWLPRP
shrunken log2 fold change: 0.564

RRIRIRPPRLPRPRPRPQIKPRP
shrunken log2 fold change: -0.853

RRIRNRPPRLPRPRPRPKKTPRP
shrunken log2 fold change: -0.197

RRIRYRPPRLPRPRPRPIVQPRP
shrunken log2 fold change: -0.121

RRIRVRPPRLPRPRPRPTNCPRP
shrunken log2 fold change: -0.075

RRIRNRPPRLPRPRPRPVPCPRP
shrunken log2 fold change: -0.237

RRIRDRPPRLPRPRPRPHLPPRP
shrunken log2 fold change: -0.0459

RRIRQRPPRLPRPRPRPDQCPRP
shrunken log2 fold change: -0.0972

RRIRYRPPRLPRPRPRPIPCPRP
shrunken log2 fold change: -0.156

RRIRIRPPRLPRPRPRPTMPPRP
shrunken log2 fold change: -0.22

RRIRKRPPRLPRPRPRPWHIPRP
shrunken log2 fold change: -0.0551

RRIRERPPRLPRPRPRPWDKPRP
shrunken log2 fold change: -0.00884

RRIRVRPPRLPRPRPRPYWDPRP
shrunken log2 fold change: 0.0849

RRIRARPPRLPRPRPRPFKPPRP
shrunken log2 fold change: -0.0739

RRIRERPPRLPRPRPRPWFVPRP
shrunken log2 fold change: -0.463

RRIRNRPPRLPRPRPRPAQSPRP
shrunken log2 fold change: 0.0508

RRIRRRPPRLPRPRPRPAMYPRP
shrunken log2 fold change: -0.145

RRIRHRPPRLPRPRPRPCVYPRP
shrunken log2 fold change: -0.62

RRIRHRPPRLPRPRPRPNFRPRP
shrunken log2 fold change: -0.144

RRIRWRPPRLPRPRPRPMCPPRP
shrunken log2 fold change: -0.232

RRIRCRPPRLPRPRPRPCQIPRP
shrunken log2 fold change: 0.0258

RRIRYRPPRLPRPRPRPIYPPRP
shrunken log2 fold change: -0.559

RRIRLRPPRLPRPRPRPRMRPRP
shrunken log2 fold change: 0.667

RRIRTRPPRLPRPRPRPRDVPRP
shrunken log2 fold change: 0.369

RRIRCRPPRLPRPRPRPVIQPRP
shrunken log2 fold change: -0.468

RRIRCRPPRLPRPRPRPVCKPRP
shrunken log2 fold change: -0.238

RRIRKRPPRLPRPRPRPGWMPRP
shrunken log2 fold change: 0.269

RRIRTRPPRLPRPRPRPRSIPRP
shrunken log2 fold change: -0.122

RRIRVRPPRLPRPRPRPLNVPRP
shrunken log2 fold change: -0.434

RRIRRRPPRLPRPRPRPANAPRP
shrunken log2 fold change: 0.055

RRIRSRPPRLPRPRPRPMFIPRP
shrunken log2 fold change: -0.212

RRIRIRPPRLPRPRPRPSYAPRP
shrunken log2 fold change: -0.0605

RRIRVRPPRLPRPRPRPVWGPRP
shrunken log2 fold change: 1.8

RRIRTRPPRLPRPRPRPCNHPRP
shrunken log2 fold change: -0.214

RRIRSRPPRLPRPRPRPEYAPRP
shrunken log2 fold change: 0.496

RRIRNRPPRLPRPRPRPAPWPRP
shrunken log2 fold change: 0.266

RRIRIRPPRLPRPRPRPRSNPRP
shrunken log2 fold change: -0.0529

RRIRHRPPRLPRPRPRPYDGPRP
shrunken log2 fold change: -0.00992

RRIRERPPRLPRPRPRPNKTPRP
shrunken log2 fold change: 0.0491

RRIRRRPPRLPRPRPRPTHRPRP
shrunken log2 fold change: 0.867

RRIRLRPPRLPRPRPRPEIVPRP
shrunken log2 fold change: 0.0118

RRIRQRPPRLPRPRPRPTFEPRP
shrunken log2 fold change: -0.177

RRIRDRPPRLPRPRPRPRKSPRP
shrunken log2 fold change: -0.0168

RRIRMRPPRLPRPRPRPIPYPRP
shrunken log2 fold change: 0.013

RRIRPRPPRLPRPRPRPPSWPRP
shrunken log2 fold change: 0.54

RRIRPRPPRLPRPRPRPSGFPRP
shrunken log2 fold change: 0.241

RRIRWRPPRLPRPRPRPVAYPRP
shrunken log2 fold change: -0.0891

RRIRTRPPRLPRPRPRPHRIPRP
shrunken log2 fold change: -0.052

RRIRGRPPRLPRPRPRPACPPRP
shrunken log2 fold change: 0.46

RRIRHRPPRLPRPRPRPVENPRP
shrunken log2 fold change: -0.0355

RRIRARPPRLPRPRPRPYPVPRP
shrunken log2 fold change: -0.191

RRIRPRPPRLPRPRPRPSLCPRP
shrunken log2 fold change: -0.0173

RRIRKRPPRLPRPRPRPWTTPRP
shrunken log2 fold change: -0.0228

RRIRLRPPRLPRPRPRPWHIPRP
shrunken log2 fold change: 0.0292

RRIRCRPPRLPRPRPRPQEPPRP
shrunken log2 fold change: 0.359

RRIRRRPPRLPRPRPRPEGRPRP
shrunken log2 fold change: 0.89

RRIRPRPPRLPRPRPRPFHPPRP
shrunken log2 fold change: -0.255

RRIRVRPPRLPRPRPRPRHDPRP
shrunken log2 fold change: 0.129

RRIRRRPPRLPRPRPRPFFFPRP
shrunken log2 fold change: 0.504
